Measured values from patent US20230140293A1.

Experiments:
Assay in all cases: cell-based or functional assay
[1] = target: CH0505TF.gly3.276 Env, Env-pseudotyped virus produced in 293S GnTI- cells (Man5-enriched) (HIV-1)
[2] = target: HIV-1 426c.DM (N460D/N463D) Env on Env-pseudotyped virus produced in 293s/GnTI-/- cells (Man5-enrichment) (HIV-1)
[3] = target: HIV-1 clade C strain 426c Env on Env-pseudotyped virus produced in 293T cells (HIV-1)
[4] = target: HIV-1 Env 426c.TM4 (S278R.G471S.N460D.N463D), Env-pseudotyped virus produced in 293S GnTI- cells (Man5-enriched) (HIV-1 clade C strain 426c)
[5] = target: HIV-1 426c.TM (N276D/N460D/N463D) Env on Env-pseudotyped virus produced in 293s/GnTI-/- cells (Man5-enrichment) (HIV-1)
[6] = target: HIV-1 426c.SM (N276D) Env on Env-pseudotyped virus produced in 293s/GnTI-/- cells (Man5-enrichment) (HIV-1)
[7] = target: CH0505TF.gly3.197 Env, Env-pseudotyped virus produced in 293T cells (HIV-1)
[8] = target: HIV-1 Env 426c, Env-pseudotyped virus produced in 293S GnTI- cells (Man5-enriched) (HIV-1 clade C strain 426c)
[9] = target: HIV-1 426c.DM (N460D/N463D) Env on Env-pseudotyped virus produced in 293T cells (HIV-1)
[10] = target: CH0505TF.gly3.461 Env, Env-pseudotyped virus produced in 293T cells (HIV-1)
[11] = target: CH0505TF Env, Env-pseudotyped virus produced in 293T cells (HIV-1)
[12] = target: HIV-1 Env 426c.DM (N460D.N463D), Env-pseudotyped virus produced in 293T cells (HIV-1 clade C strain 426c)
[13] = target: HIV-1 Env 426c.SM (N276D), Env-pseudotyped virus produced in 293T cells (HIV-1 clade C strain 426c)
[14] = target: CH0505TF.gly3.276 Env, Env-pseudotyped virus produced in 293T cells (HIV-1)
[15] = target: CH0505.w4.3 Env, Env-pseudotyped virus produced in 293T cells (HIV-1)
[16] = target: HIV-1 Env 426c.DM (N460D.N463D), Env-pseudotyped virus produced in 293S GnTI- cells (Man5-enriched) (HIV-1 clade C strain 426c)
[17] = target: CH0505TF.G458Y Env, Env-pseudotyped virus produced in 293S GnTI- cells (Man5-enriched) (HIV-1)
[18] = target: HIV-1 426c.TM (N276D/N460D/N463D) Env on Env-pseudotyped virus produced in 293T cells (HIV-1)
[19] = target: CH0505TF.G458Y Env, Env-pseudotyped virus produced in 293T cells (HIV-1)
[20] = target: HIV-1 Env 426c.TM4 (S278R.G471S.N460D.N463D), Env-pseudotyped virus produced in 293T cells (HIV-1 clade C strain 426c)
[21] = target: HIV-1 Env 426c.TM (N276D.N460D.N463D), Env-pseudotyped virus produced in 293T cells (HIV-1 clade C strain 426c)
[22] = target: HIV-1 Env 426c.TM (N276D.N460D.N463D), Env-pseudotyped virus produced in 293S GnTI- cells (Man5-enriched) (HIV-1 clade C strain 426c)
[23] = target: CH0505TF.gly4 Env, Env-pseudotyped virus produced in 293T cells (HIV-1)
[24] = target: CH0505TF.gly3.197 Env, Env-pseudotyped virus produced in 293S GnTI- cells (Man5-enriched) (HIV-1)
[25] = target: HIV-1 Env 426c, Env-pseudotyped virus produced in 293T cells (HIV-1 clade C strain 426c)
[26] = target: HIV-1 426c.SM (N276D) Env on Env-pseudotyped virus produced in 293T cells (HIV-1)
[27] = target: CH0505TF.gly3.461 Env, Env-pseudotyped virus produced in 293S GnTI- cells (Man5-enriched) (HIV-1)
[28] = target: HIV-1 Env 426c.SM (N276D), Env-pseudotyped virus produced in 293S GnTI- cells (Man5-enriched) (HIV-1 clade C strain 426c)
[29] = target: CH0505TF Env, Env-pseudotyped virus produced in 293S GnTI- cells (Man5-enriched) (HIV-1)
[30] = target: HIV-1 clade C strain 426c Env on Env-pseudotyped virus produced in 293s/GnTI-/- cells (Man5-enrichment) (HIV-1)
[31] = target: CH0505TF.gly4 Env, Env-pseudotyped virus produced in 293S GnTI- cells (Man5-enriched) (HIV-1)

Substance | IC50 (µg/ml) in TZM-bl [1] [µg/mL] | ID50/IC50 in TZM-bl [2] [µg/mL] | ID50/IC50 in TZM-bl [3] [µg/mL] | IC50 (µg/ml) in TZM-bl [4] [µg/mL] | ID50/IC50 in TZM-bl [5] [µg/mL] | ID50/IC50 in TZM-bl [6] [µg/mL] | IC50 (µg/ml) in TZM-bl [7] [µg/mL] | IC50 (µg/ml) in TZM-bl [8] [µg/mL] | ID50/IC50 in TZM-bl [9] [µg/mL] | IC50 (µg/ml) in TZM-bl [10] [µg/mL] | IC50 (µg/ml) in TZM-bl [11] [µg/mL] | IC50 (µg/ml) in TZM-bl [12] [µg/mL] | IC50 (µg/ml) in TZM-bl [13] [µg/mL] | IC50 (µg/ml) in TZM-bl [14] [µg/mL] | IC50 (µg/ml) in TZM-bl [15] [µg/mL] | IC50 (µg/ml) in TZM-bl [16] [µg/mL] | IC50 (µg/ml) in TZM-bl [17] [µg/mL] | ID50/IC50 in TZM-bl [18] [µg/mL] | IC50 (µg/ml) in TZM-bl [19] [µg/mL] | IC50 (µg/ml) in TZM-bl [20] [µg/mL] | also measured
F105 (antibody) | > 25 | > 25 | > 25 | > 25 | > 25 | > 25 | > 25 | > 25 | > 25 | > 25 | > 25 | > 25 | > 25 | > 25 | 10.8 | > 25 | > 25 | > 25 | > 25 | > 25 | IC50 (µg/ml) in TZM-bl [21]: > 25 µg/mL; IC50 (µg/ml) in TZM-bl [22]: > 25 µg/mL; IC50 (µg/ml) in TZM-bl [23]: > 25 µg/mL; IC50 (µg/ml) in TZM-bl [24]: > 25 µg/mL; IC50 (µg/ml) in TZM-bl [25]: > 25 µg/mL; ID50/IC50 in TZM-bl [26]: > 25 µg/mL; IC50 (µg/ml) in TZM-bl [27]: > 25 µg/mL; IC50 (µg/ml) in TZM-bl [28]: > 25 µg/mL; IC50 (µg/ml) in TZM-bl [29]: > 25 µg/mL; ID50/IC50 in TZM-bl [30]: > 25 µg/mL; IC50 (µg/ml) in TZM-bl [31]: > 25 µg/mL
HJ16 (antibody) | > 25 | > 25 | > 25 | > 25 | > 25 | > 25 | > 25 | > 25 | > 25 | > 25 | > 25 | > 25 | > 25 | > 25 | > 25 | > 25 | > 25 | > 25 | > 25 | > 25 | IC50 (µg/ml) in TZM-bl [21]: > 25 µg/mL; IC50 (µg/ml) in TZM-bl [22]: > 25 µg/mL; IC50 (µg/ml) in TZM-bl [23]: > 25 µg/mL; IC50 (µg/ml) in TZM-bl [24]: > 25 µg/mL; IC50 (µg/ml) in TZM-bl [25]: > 25 µg/mL; ID50/IC50 in TZM-bl [26]: > 25 µg/mL; IC50 (µg/ml) in TZM-bl [27]: > 25 µg/mL; IC50 (µg/ml) in TZM-bl [28]: > 25 µg/mL; IC50 (µg/ml) in TZM-bl [29]: > 25 µg/mL; ID50/IC50 in TZM-bl [30]: > 25 µg/mL; IC50 (µg/ml) in TZM-bl [31]: > 25 µg/mL
PG9 (antibody) | 0.04 | > 5 | > 5 | > 5 | > 5 | > 5 | 0.24 | > 5 | > 5 | 0.22 | 0.19 | > 5 | > 5 | 0.17 | 1.8 | > 5 | 0.04 | > 5 | 0.1 | > 5 | IC50 (µg/ml) in TZM-bl [21]: > 5 µg/mL; IC50 (µg/ml) in TZM-bl [22]: > 5 µg/mL; IC50 (µg/ml) in TZM-bl [23]: 0.21 µg/mL; IC50 (µg/ml) in TZM-bl [24]: 0.06 µg/mL; IC50 (µg/ml) in TZM-bl [25]: > 5 µg/mL; ID50/IC50 in TZM-bl [26]: > 5 µg/mL; IC50 (µg/ml) in TZM-bl [27]: 0.05 µg/mL; IC50 (µg/ml) in TZM-bl [28]: > 5 µg/mL; IC50 (µg/ml) in TZM-bl [29]: 0.11 µg/mL; ID50/IC50 in TZM-bl [30]: > 5 µg/mL; IC50 (µg/ml) in TZM-bl [31]: 0.02 µg/mL
PG16 (antibody) | 0.02 | > 5 | > 5 | > 5 | > 5 | > 5 | 0.05 | > 5 | > 5 | 0.1 | 0.09 | > 5 | > 5 | 0.1 | 0.03 | > 5 | 0.01 | > 5 | 0.03 | > 5 | IC50 (µg/ml) in TZM-bl [21]: > 5 µg/mL; IC50 (µg/ml) in TZM-bl [22]: > 5 µg/mL; IC50 (µg/ml) in TZM-bl [23]: 0.1 µg/mL; IC50 (µg/ml) in TZM-bl [24]: 0.03 µg/mL; IC50 (µg/ml) in TZM-bl [25]: > 5 µg/mL; ID50/IC50 in TZM-bl [26]: > 5 µg/mL; IC50 (µg/ml) in TZM-bl [27]: 0.02 µg/mL; IC50 (µg/ml) in TZM-bl [28]: > 5 µg/mL; IC50 (µg/ml) in TZM-bl [29]: 0.08 µg/mL; ID50/IC50 in TZM-bl [30]: > 5 µg/mL; IC50 (µg/ml) in TZM-bl [31]: 0.02 µg/mL
